Read-outs that look alike come from different tables or passages of the source. Bridge positions count the residues as written; N and C are the ends. Square brackets hold non-standard residues; d marks the D form. Primed or numbered codes have the meaning given here. Side chains are listed from the residue outwards. Ends that are not written are not given here. Bip = N[C@@H](Cc1ccc(-c2ccccc2)cc1)C(=O)O; Gd^T = not defined here; Gd^T″ = GdDTPA-thiourea

Experiment in all cases: dried collagen assay
Assay [1] deals with T1, human collagen type I (acid soluble, extracted from placenta, Sigma C7774) (human, UniProt P02452 162-1218; P08123 80-1119).
T1 construct: gelled and dried as a fibril film in the assay; also called dried human collagen; h-Collagen

The target in assay [2] is T2, rat collagen (acid soluble, type I, rat tail, Upstate 08-115) (rat, UniProt P02454 152-1207; P02466 86-1125).
T2 construct: also called dried rat collagen; insoluble rat collagen

Assay [3] addresses T1, human collagen type I (acid soluble, …). The source holds these as a separate data set.
The target of assay [4] is T2, rat collagen (acid soluble, type I, rat …). The source holds these as a separate data set.
Assay [5] addresses T1, human collagen type I (acid soluble, …). The source holds these as a separate data set.

T2 sequence (P02454 152-1207 limits assumed, chain 1 of 2): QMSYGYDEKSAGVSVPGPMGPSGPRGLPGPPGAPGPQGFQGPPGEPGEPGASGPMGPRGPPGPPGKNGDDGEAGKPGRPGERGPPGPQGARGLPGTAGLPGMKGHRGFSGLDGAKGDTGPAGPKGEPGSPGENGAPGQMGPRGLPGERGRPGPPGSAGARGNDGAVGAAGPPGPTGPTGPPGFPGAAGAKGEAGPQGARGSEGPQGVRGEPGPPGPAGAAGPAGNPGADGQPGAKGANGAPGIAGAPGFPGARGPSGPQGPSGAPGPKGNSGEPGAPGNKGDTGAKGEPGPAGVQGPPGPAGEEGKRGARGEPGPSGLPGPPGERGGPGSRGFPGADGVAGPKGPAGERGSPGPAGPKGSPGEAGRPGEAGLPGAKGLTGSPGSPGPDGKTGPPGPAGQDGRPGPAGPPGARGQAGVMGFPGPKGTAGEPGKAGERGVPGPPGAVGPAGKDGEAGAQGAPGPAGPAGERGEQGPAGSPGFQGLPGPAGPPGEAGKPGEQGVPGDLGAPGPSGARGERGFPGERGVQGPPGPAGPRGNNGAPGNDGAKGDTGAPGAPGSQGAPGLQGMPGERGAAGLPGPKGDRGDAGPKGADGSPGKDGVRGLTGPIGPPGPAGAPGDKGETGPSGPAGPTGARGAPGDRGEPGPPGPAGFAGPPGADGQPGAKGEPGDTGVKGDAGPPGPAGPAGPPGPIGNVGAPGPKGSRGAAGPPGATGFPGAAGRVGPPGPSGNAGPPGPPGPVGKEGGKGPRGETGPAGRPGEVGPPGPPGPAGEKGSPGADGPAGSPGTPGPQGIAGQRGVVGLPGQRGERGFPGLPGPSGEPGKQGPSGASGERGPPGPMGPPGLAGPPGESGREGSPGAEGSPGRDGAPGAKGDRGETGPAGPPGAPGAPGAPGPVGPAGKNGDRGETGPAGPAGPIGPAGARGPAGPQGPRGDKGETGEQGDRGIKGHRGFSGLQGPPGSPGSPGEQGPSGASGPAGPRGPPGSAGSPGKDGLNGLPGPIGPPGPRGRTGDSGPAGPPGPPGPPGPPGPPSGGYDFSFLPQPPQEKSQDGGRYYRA
T2 sequence (P02466 86-1125 limits assumed, chain 2 of 2): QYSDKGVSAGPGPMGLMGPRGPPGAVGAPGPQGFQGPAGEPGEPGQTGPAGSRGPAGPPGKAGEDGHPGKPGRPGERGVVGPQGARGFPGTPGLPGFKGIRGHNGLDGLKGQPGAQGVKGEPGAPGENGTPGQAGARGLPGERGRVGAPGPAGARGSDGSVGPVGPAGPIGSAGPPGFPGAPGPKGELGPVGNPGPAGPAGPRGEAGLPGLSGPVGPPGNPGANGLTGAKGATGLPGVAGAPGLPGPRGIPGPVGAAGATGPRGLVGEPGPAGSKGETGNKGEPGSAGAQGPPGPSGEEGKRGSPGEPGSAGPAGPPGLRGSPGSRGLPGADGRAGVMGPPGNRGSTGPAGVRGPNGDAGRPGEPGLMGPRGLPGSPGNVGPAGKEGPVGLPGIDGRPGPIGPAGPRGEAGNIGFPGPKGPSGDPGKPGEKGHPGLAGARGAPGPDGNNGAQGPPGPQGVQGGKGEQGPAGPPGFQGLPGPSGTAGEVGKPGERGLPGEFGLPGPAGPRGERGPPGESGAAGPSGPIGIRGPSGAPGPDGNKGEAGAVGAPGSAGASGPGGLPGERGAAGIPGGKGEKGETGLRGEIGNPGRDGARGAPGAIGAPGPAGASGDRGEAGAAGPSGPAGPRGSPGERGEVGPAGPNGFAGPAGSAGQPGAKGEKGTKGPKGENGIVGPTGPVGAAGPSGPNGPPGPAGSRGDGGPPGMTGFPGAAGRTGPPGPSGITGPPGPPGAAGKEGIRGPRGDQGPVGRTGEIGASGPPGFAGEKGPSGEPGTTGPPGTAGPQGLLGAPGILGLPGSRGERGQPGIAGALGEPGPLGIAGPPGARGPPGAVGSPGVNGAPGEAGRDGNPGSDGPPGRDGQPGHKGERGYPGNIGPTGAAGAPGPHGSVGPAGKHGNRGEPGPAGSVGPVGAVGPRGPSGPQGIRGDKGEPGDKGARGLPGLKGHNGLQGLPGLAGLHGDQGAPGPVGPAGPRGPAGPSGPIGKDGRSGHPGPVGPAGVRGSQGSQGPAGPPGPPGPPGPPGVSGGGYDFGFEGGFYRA
T1 sequence (P02452 162-1218 limits assumed, chain 1 of 2): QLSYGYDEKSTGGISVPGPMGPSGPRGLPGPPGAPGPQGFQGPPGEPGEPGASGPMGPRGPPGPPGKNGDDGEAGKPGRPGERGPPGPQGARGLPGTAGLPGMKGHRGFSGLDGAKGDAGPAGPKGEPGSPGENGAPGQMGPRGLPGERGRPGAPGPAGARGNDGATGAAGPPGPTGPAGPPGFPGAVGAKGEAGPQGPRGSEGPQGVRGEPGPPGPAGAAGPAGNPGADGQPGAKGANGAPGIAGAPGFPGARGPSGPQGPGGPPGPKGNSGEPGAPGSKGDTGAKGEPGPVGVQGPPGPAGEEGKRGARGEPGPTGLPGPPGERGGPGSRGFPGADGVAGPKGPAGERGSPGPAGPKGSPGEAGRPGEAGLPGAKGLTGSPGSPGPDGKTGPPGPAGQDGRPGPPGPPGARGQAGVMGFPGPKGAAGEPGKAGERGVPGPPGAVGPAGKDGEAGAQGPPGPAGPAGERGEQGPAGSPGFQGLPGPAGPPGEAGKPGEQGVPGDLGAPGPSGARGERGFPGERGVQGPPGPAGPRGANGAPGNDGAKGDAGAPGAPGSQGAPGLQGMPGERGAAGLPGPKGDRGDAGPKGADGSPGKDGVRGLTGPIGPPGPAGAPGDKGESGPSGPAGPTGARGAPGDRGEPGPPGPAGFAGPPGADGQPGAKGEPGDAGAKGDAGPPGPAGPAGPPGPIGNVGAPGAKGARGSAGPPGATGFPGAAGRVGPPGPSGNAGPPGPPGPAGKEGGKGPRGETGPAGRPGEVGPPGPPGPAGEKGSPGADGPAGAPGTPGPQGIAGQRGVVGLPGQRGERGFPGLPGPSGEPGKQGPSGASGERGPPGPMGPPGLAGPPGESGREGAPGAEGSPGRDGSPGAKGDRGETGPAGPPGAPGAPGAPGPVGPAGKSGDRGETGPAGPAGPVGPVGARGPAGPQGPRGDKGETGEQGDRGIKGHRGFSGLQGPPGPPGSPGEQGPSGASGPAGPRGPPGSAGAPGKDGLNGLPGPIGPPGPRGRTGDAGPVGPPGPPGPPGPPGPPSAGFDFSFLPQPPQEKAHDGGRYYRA
T1 sequence (P08123 80-1119 limits assumed, chain 2 of 2): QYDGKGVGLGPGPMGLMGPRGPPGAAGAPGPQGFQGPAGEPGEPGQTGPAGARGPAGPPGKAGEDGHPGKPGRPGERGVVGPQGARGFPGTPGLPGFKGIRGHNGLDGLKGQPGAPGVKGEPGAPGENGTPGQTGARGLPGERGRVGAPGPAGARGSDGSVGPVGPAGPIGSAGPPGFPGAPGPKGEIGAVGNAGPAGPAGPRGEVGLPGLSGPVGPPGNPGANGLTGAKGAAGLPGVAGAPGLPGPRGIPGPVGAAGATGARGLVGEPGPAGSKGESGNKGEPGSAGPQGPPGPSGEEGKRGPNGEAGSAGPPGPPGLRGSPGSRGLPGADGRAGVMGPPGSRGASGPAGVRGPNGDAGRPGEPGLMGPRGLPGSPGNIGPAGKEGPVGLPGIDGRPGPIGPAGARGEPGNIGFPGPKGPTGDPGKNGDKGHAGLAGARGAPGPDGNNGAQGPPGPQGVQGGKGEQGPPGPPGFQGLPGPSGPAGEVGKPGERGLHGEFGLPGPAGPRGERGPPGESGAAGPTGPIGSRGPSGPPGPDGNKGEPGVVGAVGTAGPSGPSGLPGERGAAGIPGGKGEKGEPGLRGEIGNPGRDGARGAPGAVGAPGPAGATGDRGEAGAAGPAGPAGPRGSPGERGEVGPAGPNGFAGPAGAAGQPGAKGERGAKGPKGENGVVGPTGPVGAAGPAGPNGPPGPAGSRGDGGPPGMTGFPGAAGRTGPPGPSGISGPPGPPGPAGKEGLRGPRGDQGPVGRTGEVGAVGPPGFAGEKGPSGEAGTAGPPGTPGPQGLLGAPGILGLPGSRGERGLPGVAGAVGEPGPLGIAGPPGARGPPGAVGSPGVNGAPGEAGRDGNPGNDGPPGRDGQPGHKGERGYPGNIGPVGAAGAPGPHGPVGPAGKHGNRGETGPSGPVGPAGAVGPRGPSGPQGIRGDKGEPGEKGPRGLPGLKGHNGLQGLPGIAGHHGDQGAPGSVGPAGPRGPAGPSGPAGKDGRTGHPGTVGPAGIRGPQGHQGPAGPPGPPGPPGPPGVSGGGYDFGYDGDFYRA

Turning to DWTCSGNHLTWYCNYG (disulfide 4-13 (inferred)) [SEQ ID NO: 118], the “% bound” value was found to be 68% in assay [1] and 67% in assay [2].
For the molecule YHACYQ[dA]GCWIW (disulfide 4-9 (inferred)) [SEQ ID NO: 158], the “% bound” value in assay [3] stood at 56%; in assay [4], 66%.
The like results for YHAC[dY]QAGCWIW (disulfide 4-9 (inferred)) [SEQ ID NO: 156] were, in that order, 38% and 48%.

B1: Comp ID 897 (peptide)
peptide: {Gd^T}-GQWHCT[dN]RFPHHYCLYG
modifications: disulfide 5-14 (inferred); not fully specified (C-terminus); printed as Gd^T-GQWHCTnRFPHHYCLYG; reading uncertain
Regarding B1, the “% bound” value in assay [5] came to 4%.

B2: Comp ID 900 (peptide)
peptide: {Gd^T}-GQWHCT[dR]RFPHHYCLYG
modifications: disulfide 5-14 (inferred); not fully specified (C-terminus); printed as Gd^T-GQWHCTrRFPHHYCLYG; reading uncertain
In the case of B2, in assay [5], the “% bound” value was determined as 4%.

B3: Comp ID 898 (peptide)
peptide: {Gd^T}-GQWHCT[dS]RFPHHYCLYG
modifications: disulfide 5-14 (inferred); not fully specified (C-terminus); printed as Gd^T-GQWHCTsRFPHHYCLYG; reading uncertain
In the case of B3, in assay [5], the “% bound” value was 5%.

B4: Comp ID 951 (peptide)
peptide: {Gd^T″}-GK([Gly-Gd^T″])WHCTTYFPHH[Bip]CLYG
modifications: disulfide 5-14; not fully specified (C-terminus); printed as Gd^T-G-K(G.Gd^T)-WHCTTYFPHH-Bip-CLYG
As to B4, in assay [5], the “% bound” value was found to be 45%.
Take YHACY[dQ]AGCWIW (disulfide 4-9 (inferred)) [SEQ ID NO: 157]: the “% bound” value in assay [3] turned out to be 37%; in assay [4], 35%.
For YHACYQAGCW[dI]W (disulfide 4-9 (inferred)) [SEQ ID NO: 161], in that order: 8% and 10%.
Turning to DWTCSGDPYTWHCNYE (disulfide 4-13 (inferred)) [SEQ ID NO: 115], the “% bound” value in assay [1] turned out to be 39%; in assay [2] it was 23%.
The like results for DWTCSGDEFTWHCNYE (disulfide 4-13 (inferred)) [SEQ ID NO: 119] were, in that order, 55% and 55%.
For WTCSGDEYTWHCNYE (disulfide 3-12 (inferred)) [SEQ ID NO: 114], in that order: 19% and 14%.
On to YHACYQAGC[dW]IW (disulfide 4-9 (inferred)) [SEQ ID NO: 160], for which the “% bound” value in assay [3] is 20%; in assay [4], 12%.
Turning to DWTCSGDHLTWHCNYG (disulfide 4-13 (inferred)) [SEQ ID NO: 116], the “% bound” value was 58% in assay [1] and 35% in assay [2].
The like results for DWTCSGDHLTWKCNYG (disulfide 4-13 (inferred)) [SEQ ID NO: 117] were, in that order, 38% and 24%.

Source of the values: patent US20070293656A1, “COLLAGEN BINDING PEPTIDES” (Epix Pharmaceuticals, Inc., priority 2005, published 2007).
